# Assays:
# Test in all cases: SEC peak area ratio; full-length heavy chain, light chain and Fc fragment coexpressed in Expi293F, affinity purified
# [1] = target: T1, Fc fragment SEQ ID NO: 597 (coexpressed with the M428L/N434S heavy chains) (Homo sapiens (Human), UniProt P01857 104-328 = IgG part)
# T1 construct: Fc fragment without CH3 interface modification
# [2] = target: the molecule itself
# [3] = target: T2, Fc fragment SEQ ID NO: 594 (coexpressed with the L235R/G236R heavy chains) (Homo sapiens (Human), UniProt P01857 104-328 = IgG part)
# T2 construct: Fc fragment without CH3 interface modification
# [4] = target: T3, Fc fragment SEQ ID NO: 595 (coexpressed with the L234A/L235A heavy chains) (Homo sapiens (Human), UniProt P01857 104-328 = IgG part)
# T3 construct: Fc fragment without CH3 interface modification
Binder,Heteromultimer (%) [1],Heteromultimer (%) [3],Heteromultimer (%) [4],Homo full-length heavy chain (%) [2]
"Full-length heavy chain with L235R/G236R (suppress FcγR binding) and E356K/K392D/D399K/K439E (SEQ ID NO: 137), with light chain SEQ ID NO: 61 (antibody, human IgG1, kappa, also called Sample No. 317 full-length heavy chain) heavy: QVQLQESGPGLVRPSQTLSLTCTVSGYSITSDHAWSWVRQPPGRGLEWIGYISYSGITTYNPSLKSRVTMLRDTSKNQFSLRLSSVTAADTAVYYCARSLARTTAMDYWGQGSLVTVSSASTKGPSVFPLAPSSKSTSGGTAALGCLVKDYFPEPVTVSWNSGALTSGVHTFPAVLQSSGLYSLSSVVTVPSSSLGTQTYICNVNHKPSNTKVDKRVEPKSCDKTHTCPPCPAPELRRGPSVFLFPPKPKDTLMISRTPEVTCVVVDVSHEDPEVKFNWYVDGVEVHNAKTKPREEQYNSTYRVVSVLTVLHQDWLNGKEYKCKVSNKALPAPIEKTISKAKGQPREPQVYTLPPSRKEMTKNQVSLTCLVKGFYPSDIAVEWESNGQPENNYDTTPPVLKSDGSFFLYSKLTVDKSRWQQGNVFSCSVMHEALHNHYTQESLSLSP light: not shown",,0%,,62.2%
"Full-length heavy chain with L234A/L235A (suppress FcγR binding) and Q347R/K360E/D399V/F405T/K409W (SEQ ID NO: 141), with light chain SEQ ID NO: 61 (antibody, human IgG1, kappa, L234A L235A) heavy: QVQLQESGPGLVRPSQTLSLTCTVSGYSITSDHAWSWVRQPPGRGLEWIGYISYSGITTYNPSLKSRVTMLRDTSKNQFSLRLSSVTAADTAVYYCARSLARTTAMDYWGQGSLVTVSSASTKGPSVFPLAPSSKSTSGGTAALGCLVKDYFPEPVTVSWNSGALTSGVHTFPAVLQSSGLYSLSSVVTVPSSSLGTQTYICNVNHKPSNTKVDKRVEPKSCDKTHTCPPCPAPEAAGGPSVFLFPPKPKDTLMISRTPEVTCVVVDVSHEDPEVKFNWYVDGVEVHNAKTKPREEQYNSTYRVVSVLTVLHQDWLNGKEYKCKVSNKALPAPIEKTISKAKGQPREPRVYTLPPSREEMTENQVSLTCLVKGFYPSDIAVEWESNGQPENNYKTTPPVLVSDGSFTLYSWLTVDKSRWQQGNVFSCSVMHEALHNHYTQKSLSLSP light: not shown",,,0%,65.3%
"Full-length heavy chain with L234A/L235A (suppress FcγR binding) and E356K/K392D/D399K/K439E (SEQ ID NO: 142), with light chain SEQ ID NO: 61 (antibody, human IgG1, kappa, L234A L235A) heavy: QVQLQESGPGLVRPSQTLSLTCTVSGYSITSDHAWSWVRQPPGRGLEWIGYISYSGITTYNPSLKSRVTMLRDTSKNQFSLRLSSVTAADTAVYYCARSLARTTAMDYWGQGSLVTVSSASTKGPSVFPLAPSSKSTSGGTAALGCLVKDYFPEPVTVSWNSGALTSGVHTFPAVLQSSGLYSLSSVVTVPSSSLGTQTYICNVNHKPSNTKVDKRVEPKSCDKTHTCPPCPAPEAAGGPSVFLFPPKPKDTLMISRTPEVTCVVVDVSHEDPEVKFNWYVDGVEVHNAKTKPREEQYNSTYRVVSVLTVLHQDWLNGKEYKCKVSNKALPAPIEKTISKAKGQPREPQVYTLPPSRKEMTKNQVSLTCLVKGFYPSDIAVEWESNGQPENNYDTTPPVLKSDGSFFLYSKLTVDKSRWQQGNVFSCSVMHEALHNHYTQESLSLSP light: not shown",,,0%,67.9%
"Full-length heavy chain with L234A/L235A (suppress FcγR binding) and T366W/L368A/Y407V (SEQ ID NO: 140), with light chain SEQ ID NO: 61 (antibody, human IgG1, kappa, L234A L235A, also called Sample No. 320 full-length heavy chain) heavy: QVQLQESGPGLVRPSQTLSLTCTVSGYSITSDHAWSWVRQPPGRGLEWIGYISYSGITTYNPSLKSRVTMLRDTSKNQFSLRLSSVTAADTAVYYCARSLARTTAMDYWGQGSLVTVSSASTKGPSVFPLAPSSKSTSGGTAALGCLVKDYFPEPVTVSWNSGALTSGVHTFPAVLQSSGLYSLSSVVTVPSSSLGTQTYICNVNHKPSNTKVDKRVEPKSCDKTHTCPPCPAPEAAGGPSVFLFPPKPKDTLMISRTPEVTCVVVDVSHEDPEVKFNWYVDGVEVHNAKTKPREEQYNSTYRVVSVLTVLHQDWLNGKEYKCKVSNKALPAPIEKTISKAKGQPREPQVYTLPPSREEMTKNQVSLWCAVKGFYPSDIAVEWESNGQPENNYKTTPPVLDSDGSFFLVSKLTVDKSRWQQGNVFSCSVMHEALHNHYTQKSLSLSP light: not shown",,,0%,67.5%
"Full-length heavy chain with L234A/L235A (suppress FcγR binding) and T394W/F405A (SEQ ID NO: 139), with light chain SEQ ID NO: 61 (antibody, human IgG1, kappa, L234A L235A) heavy: QVQLQESGPGLVRPSQTLSLTCTVSGYSITSDHAWSWVRQPPGRGLEWIGYISYSGITTYNPSLKSRVTMLRDTSKNQFSLRLSSVTAADTAVYYCARSLARTTAMDYWGQGSLVTVSSASTKGPSVFPLAPSSKSTSGGTAALGCLVKDYFPEPVTVSWNSGALTSGVHTFPAVLQSSGLYSLSSVVTVPSSSLGTQTYICNVNHKPSNTKVDKRVEPKSCDKTHTCPPCPAPEAAGGPSVFLFPPKPKDTLMISRTPEVTCVVVDVSHEDPEVKFNWYVDGVEVHNAKTKPREEQYNSTYRVVSVLTVLHQDWLNGKEYKCKVSNKALPAPIEKTISKAKGQPREPQVYTLPPSREEMTKNQVSLTCLVKGFYPSDIAVEWESNGQPENNYKTWPPVLDSDGSFALYSKLTVDKSRWQQGNVFSCSVMHEALHNHYTQKSLSLSP light: not shown",,,0%,66.9%

# Further lines, with some results ahead:
Heteromultimer (%) [1],Heteromultimer (%) [3],Heteromultimer (%) [4],Binder,Homo full-length heavy chain (%) [2]
0%,,,"Full-length heavy chain with M428L/N434S (enhance FcRn binding) and Q347R/K360E/D399V/F405T/K409W (SEQ ID NO: 151), with light chain SEQ ID NO: 61 (antibody, human IgG1, kappa) heavy: QVQLQESGPGLVRPSQTLSLTCTVSGYSITSDHAWSWVRQPPGRGLEWIGYISYSGITTYNPSLKSRVTMLRDTSKNQFSLRLSSVTAADTAVYYCARSLARTTAMDYWGQGSLVTVSSASTKGPSVFPLAPSSKSTSGGTAALGCLVKDYFPEPVTVSWNSGALTSGVHTFPAVLQSSGLYSLSSVVTVPSSSLGTQTYICNVNHKPSNTKVDKRVEPKSCDKTHTCPPCPAPELLGGPSVFLFPPKPKDTLMISRTPEVTCVVVDVSHEDPEVKFNWYVDGVEVHNAKTKPREEQYNSTYRVVSVLTVLHQDWLNGKEYKCKVSNKALPAPIEKTISKAKGQPREPRVYTLPPSREEMTENQVSLTCLVKGFYPSDIAVEWESNGQPENNYKTTPPVLVSDGSFTLYSWLTVDKSRWQQGNVFSCSVLHEALHSHYTQKSLSLSP light: not shown",66.9%
0%,,,"Full-length heavy chain with M428L/N434S (enhance FcRn binding) and T394W/F405A (SEQ ID NO: 149), with light chain SEQ ID NO: 61 (antibody, human IgG1, kappa) heavy: QVQLQESGPGLVRPSQTLSLTCTVSGYSITSDHAWSWVRQPPGRGLEWIGYISYSGITTYNPSLKSRVTMLRDTSKNQFSLRLSSVTAADTAVYYCARSLARTTAMDYWGQGSLVTVSSASTKGPSVFPLAPSSKSTSGGTAALGCLVKDYFPEPVTVSWNSGALTSGVHTFPAVLQSSGLYSLSSVVTVPSSSLGTQTYICNVNHKPSNTKVDKRVEPKSCDKTHTCPPCPAPELLGGPSVFLFPPKPKDTLMISRTPEVTCVVVDVSHEDPEVKFNWYVDGVEVHNAKTKPREEQYNSTYRVVSVLTVLHQDWLNGKEYKCKVSNKALPAPIEKTISKAKGQPREPQVYTLPPSREEMTKNQVSLTCLVKGFYPSDIAVEWESNGQPENNYKTWPPVLDSDGSFALYSKLTVDKSRWQQGNVFSCSVLHEALHSHYTQKSLSLSP light: not shown",61%
0%,,,"Full-length heavy chain with M428L/N434S (enhance FcRn binding) and T366W/L368A/Y407V (SEQ ID NO: 150), with light chain SEQ ID NO: 61 (antibody, human IgG1, kappa, also called Sample No. 330 full-length heavy chain) heavy: QVQLQESGPGLVRPSQTLSLTCTVSGYSITSDHAWSWVRQPPGRGLEWIGYISYSGITTYNPSLKSRVTMLRDTSKNQFSLRLSSVTAADTAVYYCARSLARTTAMDYWGQGSLVTVSSASTKGPSVFPLAPSSKSTSGGTAALGCLVKDYFPEPVTVSWNSGALTSGVHTFPAVLQSSGLYSLSSVVTVPSSSLGTQTYICNVNHKPSNTKVDKRVEPKSCDKTHTCPPCPAPELLGGPSVFLFPPKPKDTLMISRTPEVTCVVVDVSHEDPEVKFNWYVDGVEVHNAKTKPREEQYNSTYRVVSVLTVLHQDWLNGKEYKCKVSNKALPAPIEKTISKAKGQPREPQVYTLPPSREEMTKNQVSLWCAVKGFYPSDIAVEWESNGQPENNYKTTPPVLDSDGSFFLVSKLTVDKSRWQQGNVFSCSVLHEALHSHYTQKSLSLSP light: not shown",54.8%
,3.4%,,"Full-length heavy chain with L235R/G236R (suppress FcγR binding) and T366W/L368A/Y407V (SEQ ID NO: 135), with light chain SEQ ID NO: 61 (antibody, human IgG1, kappa) heavy: QVQLQESGPGLVRPSQTLSLTCTVSGYSITSDHAWSWVRQPPGRGLEWIGYISYSGITTYNPSLKSRVTMLRDTSKNQFSLRLSSVTAADTAVYYCARSLARTTAMDYWGQGSLVTVSSASTKGPSVFPLAPSSKSTSGGTAALGCLVKDYFPEPVTVSWNSGALTSGVHTFPAVLQSSGLYSLSSVVTVPSSSLGTQTYICNVNHKPSNTKVDKRVEPKSCDKTHTCPPCPAPELRRGPSVFLFPPKPKDTLMISRTPEVTCVVVDVSHEDPEVKFNWYVDGVEVHNAKTKPREEQYNSTYRVVSVLTVLHQDWLNGKEYKCKVSNKALPAPIEKTISKAKGQPREPQVYTLPPSREEMTKNQVSLWCAVKGFYPSDIAVEWESNGQPENNYKTTPPVLDSDGSFFLVSKLTVDKSRWQQGNVFSCSVMHEALHNHYTQKSLSLSP light: not shown",58.1%
,0%,,"Full-length heavy chain with L235R/G236R (suppress FcγR binding) and Q347R/K360E/D399V/F405T/K409W (SEQ ID NO: 136), with light chain SEQ ID NO: 61 (antibody, human IgG1, kappa) heavy: QVQLQESGPGLVRPSQTLSLTCTVSGYSITSDHAWSWVRQPPGRGLEWIGYISYSGITTYNPSLKSRVTMLRDTSKNQFSLRLSSVTAADTAVYYCARSLARTTAMDYWGQGSLVTVSSASTKGPSVFPLAPSSKSTSGGTAALGCLVKDYFPEPVTVSWNSGALTSGVHTFPAVLQSSGLYSLSSVVTVPSSSLGTQTYICNVNHKPSNTKVDKRVEPKSCDKTHTCPPCPAPELRRGPSVFLFPPKPKDTLMISRTPEVTCVVVDVSHEDPEVKFNWYVDGVEVHNAKTKPREEQYNSTYRVVSVLTVLHQDWLNGKEYKCKVSNKALPAPIEKTISKAKGQPREPRVYTLPPSREEMTENQVSLTCLVKGFYPSDIAVEWESNGQPENNYKTTPPVLVSDGSFTLYSWLTVDKSRWQQGNVFSCSVMHEALHNHYTQKSLSLSP light: not shown",60.2%
,0%,,"Full-length heavy chain with L235R/G236R (suppress FcγR binding) and T394W/F405A (SEQ ID NO: 134), with light chain SEQ ID NO: 61 (antibody, human IgG1, kappa) heavy: QVQLQESGPGLVRPSQTLSLTCTVSGYSITSDHAWSWVRQPPGRGLEWIGYISYSGITTYNPSLKSRVTMLRDTSKNQFSLRLSSVTAADTAVYYCARSLARTTAMDYWGQGSLVTVSSASTKGPSVFPLAPSSKSTSGGTAALGCLVKDYFPEPVTVSWNSGALTSGVHTFPAVLQSSGLYSLSSVVTVPSSSLGTQTYICNVNHKPSNTKVDKRVEPKSCDKTHTCPPCPAPELRRGPSVFLFPPKPKDTLMISRTPEVTCVVVDVSHEDPEVKFNWYVDGVEVHNAKTKPREEQYNSTYRVVSVLTVLHQDWLNGKEYKCKVSNKALPAPIEKTISKAKGQPREPQVYTLPPSREEMTKNQVSLTCLVKGFYPSDIAVEWESNGQPENNYKTWPPVLDSDGSFALYSKLTVDKSRWQQGNVFSCSVMHEALHNHYTQKSLSLSP light: not shown",64.1%

# Reference: patent publication US20260217835A1 (published 2026)
